# Measured values from publication PMC10630445, “RNA recognition by Npl3p reveals U2 snRNA-binding compatible with a chaperone role during splicing”.
# Tests used:
# [1] = target: T1, Npl3 RRM1/2 F229A (Saccharomyces cerevisiae, UniProt Q01560 114-282, F229A); test: ITC; ITC at 40 °C in NMR buffer: RRM1 and RRM1/2 25 mM Na2HPO4, 25 mM NaH2PO4 pH 6.9; RRM2 100 mM NaCl, 20 mM NaH2PO4 pH 5.5; NMR titrations at 40 °C (U2 SL I 1D spectra at 303 K); conditions: protein: recombinant; (pET28a)
# T1 sequence: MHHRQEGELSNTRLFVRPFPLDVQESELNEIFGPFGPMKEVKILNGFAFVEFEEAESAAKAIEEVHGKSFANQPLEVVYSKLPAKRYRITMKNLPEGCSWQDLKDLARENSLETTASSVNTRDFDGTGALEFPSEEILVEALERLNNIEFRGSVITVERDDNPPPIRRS
# [2] = target: T2, Npl3 RRM1/2 linker GGG (Saccharomyces cerevisiae, UniProt Q01560 114-282, L195G;P196G;A197G); test: as above; conditions: protein: recombinant; (pET28a)
# T2 sequence: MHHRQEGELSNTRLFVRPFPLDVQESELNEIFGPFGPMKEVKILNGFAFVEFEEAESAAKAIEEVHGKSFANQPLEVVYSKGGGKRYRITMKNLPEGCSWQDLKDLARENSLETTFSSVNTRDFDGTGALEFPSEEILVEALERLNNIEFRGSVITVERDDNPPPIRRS
# [3] = target: T3, Npl3 RRM1/2 linker 3xGGGGS (Saccharomyces cerevisiae, UniProt Q01560 114-194+=GGGGSGGGGSGGGGS+198-282, internal_change); test: as above; conditions: protein: recombinant; (pET28a)
# T3 sequence: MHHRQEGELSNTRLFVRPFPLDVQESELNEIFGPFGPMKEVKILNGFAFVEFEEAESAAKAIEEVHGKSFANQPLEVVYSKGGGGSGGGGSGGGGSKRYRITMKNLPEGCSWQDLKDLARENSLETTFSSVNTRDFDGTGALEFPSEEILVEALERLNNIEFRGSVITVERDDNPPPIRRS
# [4] = target: T4, Npl3 RRM1/2 R126A (Saccharomyces cerevisiae, UniProt Q01560 114-282, R126A); test: as above; conditions: protein: recombinant; (pET28a)
# T4 sequence: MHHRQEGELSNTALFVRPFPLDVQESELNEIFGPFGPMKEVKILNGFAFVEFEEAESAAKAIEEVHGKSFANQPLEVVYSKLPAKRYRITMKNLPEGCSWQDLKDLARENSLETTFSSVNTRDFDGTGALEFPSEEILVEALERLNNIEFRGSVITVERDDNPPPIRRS
# [5] = target: T5, Npl3 RRM1/2 R130A (Saccharomyces cerevisiae, UniProt Q01560 114-282, R130A); test: as above; conditions: protein: recombinant; (pET28a)
# T5 sequence: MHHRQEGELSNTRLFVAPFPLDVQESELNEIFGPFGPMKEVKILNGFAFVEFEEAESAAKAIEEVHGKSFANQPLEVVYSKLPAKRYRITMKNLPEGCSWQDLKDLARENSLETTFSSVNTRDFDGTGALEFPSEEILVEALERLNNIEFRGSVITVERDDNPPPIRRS
# [6] = target: T6, Npl3 RRM1/2 (Saccharomyces cerevisiae, UniProt Q01560 114-282); test: as above; conditions: protein: recombinant; (pET28a, nickel purification)
# T6 sequence: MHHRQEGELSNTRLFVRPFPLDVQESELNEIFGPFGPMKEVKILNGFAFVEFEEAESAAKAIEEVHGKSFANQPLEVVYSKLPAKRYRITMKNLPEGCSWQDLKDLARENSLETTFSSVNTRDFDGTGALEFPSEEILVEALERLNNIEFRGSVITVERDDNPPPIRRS
# [7] = target: T7, Npl3 RRM1/2 Q214A+K217A (Saccharomyces cerevisiae, UniProt Q01560 114-282, Q214A;K217A); test: as above; conditions: protein: recombinant; (pET28a)
# T7 sequence: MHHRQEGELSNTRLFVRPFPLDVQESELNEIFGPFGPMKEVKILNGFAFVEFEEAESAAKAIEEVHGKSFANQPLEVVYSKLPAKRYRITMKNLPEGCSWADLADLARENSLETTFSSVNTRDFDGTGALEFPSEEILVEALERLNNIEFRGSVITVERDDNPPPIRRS
# [8] = target: T8, Npl3 RRM1/2 K217A (Saccharomyces cerevisiae, UniProt Q01560 114-282, K217A); test: as above; conditions: protein: recombinant; (pET28a)
# T8 sequence: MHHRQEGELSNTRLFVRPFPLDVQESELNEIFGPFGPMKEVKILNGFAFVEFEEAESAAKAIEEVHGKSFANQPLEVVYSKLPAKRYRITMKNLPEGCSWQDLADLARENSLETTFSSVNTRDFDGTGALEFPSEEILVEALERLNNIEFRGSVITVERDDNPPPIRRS
# [9] = target: T9, Npl3 RRM1/2 F128A (Saccharomyces cerevisiae, UniProt Q01560 114-282, F128A); test: as above; conditions: protein: recombinant; (pET28a)
# T9 sequence: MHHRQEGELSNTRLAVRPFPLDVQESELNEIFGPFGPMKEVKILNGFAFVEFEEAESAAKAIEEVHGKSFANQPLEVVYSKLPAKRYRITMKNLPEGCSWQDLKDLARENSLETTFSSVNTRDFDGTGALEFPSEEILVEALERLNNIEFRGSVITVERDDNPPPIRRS
# [10] = target: T10, Npl3 RRM1/2 Q214A (Saccharomyces cerevisiae, UniProt Q01560 114-282, Q214A); test: as above; conditions: protein: recombinant; (pET28a)
# T10 sequence: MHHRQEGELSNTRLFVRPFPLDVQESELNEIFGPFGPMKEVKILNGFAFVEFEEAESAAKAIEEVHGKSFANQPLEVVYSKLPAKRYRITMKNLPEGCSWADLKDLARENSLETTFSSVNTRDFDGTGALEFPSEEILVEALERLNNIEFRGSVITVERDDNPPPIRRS
# [11] = target: T11, Npl3 RRM2 (Saccharomyces cerevisiae, UniProt Q01560 193-282); test: as above; conditions: protein: recombinant; (pET28a, nickel purification)
# T11 sequence: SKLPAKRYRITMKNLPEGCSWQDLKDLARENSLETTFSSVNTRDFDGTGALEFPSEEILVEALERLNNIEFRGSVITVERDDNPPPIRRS
# [12] = target: T12, Npl3 RRM1 (Saccharomyces cerevisiae, UniProt Q01560 114-201); test: as above; conditions: protein: recombinant; (pET28a, nickel purification)
# T12 sequence: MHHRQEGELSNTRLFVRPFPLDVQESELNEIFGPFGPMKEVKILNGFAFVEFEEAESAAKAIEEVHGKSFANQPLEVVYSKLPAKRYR
# [13] = target: T6, Npl3 RRM1/2; test: NMR titration; UV melting; protein destabilizes the stem; Tm decreased; ITC at 40 °C in NMR buffer: RRM1 and RRM1/2 25 mM Na2HPO4, 25 mM NaH2PO4 pH 6.9; RRM2 100 mM NaCl, 20 mM NaH2PO4 pH 5.5; NMR titrations at 40 °C (U2 SL I 1D spectra at 303 K); conditions: protein: recombinant; (pET28a, nickel purification); hairpin
# [14] = target: T12, Npl3 RRM1; test: NMR titration; ITC at 40 °C in NMR buffer: RRM1 and RRM1/2 25 mM Na2HPO4, 25 mM NaH2PO4 pH 6.9; RRM2 100 mM NaCl, 20 mM NaH2PO4 pH 5.5; NMR titrations at 40 °C (U2 SL I 1D spectra at 303 K); conditions: protein: recombinant; (pET28a, nickel purification)
binder,measurement,setting,value
AUCCAGUGGAA (ssRNA) [split-iCRAC consensus RNA],Kd,[1],2300 nM
same,Kd,[2],3800 nM
same,Kd,[3],6800 nM
same,Kd,[4],10700 nM
same,Kd,[5],900 nM
same,Kd,[6],500 nM
same,Kd,[7],15300 nM
same,Kd,[8],7500 nM
same,Kd,[9],12800 nM
same,Kd,[10],1700 nM
AGUGGAC (ssRNA) [RRM2 site RNA],Kd,[11],2200 nM
AUCCAAUGGAA (ssRNA) [G6A RNA],Kd,[6],2200 nM
AUUCAGUGGAA (ssRNA) [C3U RNA],Kd,[6],1800 nM
AUCUAGUGGAA (ssRNA) [C4U RNA],Kd,[6],1600 nM
AUCCAGUAGAA (ssRNA) [G8A RNA],Kd,[6],1900 nM
AUCCAGUGAAA (ssRNA) [G9A RNA],Kd,[6],2500 nM
AUCCAA (ssRNA) [RRM1 site RNA],Kd,[12],~16200 nM
GAGCGAAUCUCUUUGCCUUUUGGCUUAGAUC (structured_RNA) [U2 snRNA stem-loop I],binding result,[13],binds
UUUUUUUU (ssRNA) [polyU 8mer RNA],binding result,[14],no binding
AUGGAGUCCAA (ssRNA) [inverted motif RNA],Kd,[6],1200 nM
